The target in the assay is T1, human recombinant PILRa-Fc protein (human, UniProt Q9UKJ1 20-196, limits assumed).
T1 construct: Recombinant protein; also called human PILRa-Fc; not shown: Fc part
The experiment in a line: flow cytometry, PILRa-Fc on Ramos cells expressing FLAG-SMAGP mutant, anti-human-IgG-PE secondary.

T1 sequence (Q9UKJ1 20-196 limits assumed): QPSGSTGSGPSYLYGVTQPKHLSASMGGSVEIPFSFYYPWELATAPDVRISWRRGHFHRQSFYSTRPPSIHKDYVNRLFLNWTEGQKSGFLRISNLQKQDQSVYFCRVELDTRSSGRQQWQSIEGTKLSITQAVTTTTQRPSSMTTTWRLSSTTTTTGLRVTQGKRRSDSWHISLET

B1: N-terminus FLAG-tagged mutant SMAGP^T7A,T17A expressed on Ramos cells (other, UniProt Q0VAQ4 1-97, looked up)
chain: MTSLLTAPSPREELMTAPILQPTEALSPEDGASTALIAVVITVVFLTLLSVVILIFFYLYKNKGSYVTYEPTEGEPSAIVQMESDLAKGSEKEEYFI
notes: whole, on cells; Double glycosylation-site mutant; also called T7A and T17A double mutations on SMAGP; not shown: N-terminal FLAG tag
In the case of B1, the binding result is “no binding”.

B2: N-terminus FLAG-tagged mutant SMAGP^T7A,S9A expressed on Ramos cells (other, UniProt Q0VAQ4 1-97, looked up)
chain: MTSLLTAPAPREELMTTPILQPTEALSPEDGASTALIAVVITVVFLTLLSVVILIFFYLYKNKGSYVTYEPTEGEPSAIVQMESDLAKGSEKEEYFI
notes: whole, on cells; Double glycosylation-site mutant; not shown: N-terminal FLAG tag
With B2, the binding result is on record as “no binding”.

B3: N-terminus FLAG-tagged mutant SMAGP^T6A,T7A expressed on Ramos cells (other, UniProt Q0VAQ4 1-97, looked up)
chain: MTSLLAAPSPREELMTTPILQPTEALSPEDGASTALIAVVITVVFLTLLSVVILIFFYLYKNKGSYVTYEPTEGEPSAIVQMESDLAKGSEKEEYFI
notes: as for B2
B3: the binding result is “no binding”.

Values taken from patent publication US20260042859A1 (Stanford University, published 2026).
